Test results: patent US20180155451A1 (published 2018)

T1: FcγRIIb (human, UniProt P31994 43-217)
T1 construct: extracellular domain; also called FcgRIIb; 2b; not shown: His tag at the C terminus
T1 sequence (looked up): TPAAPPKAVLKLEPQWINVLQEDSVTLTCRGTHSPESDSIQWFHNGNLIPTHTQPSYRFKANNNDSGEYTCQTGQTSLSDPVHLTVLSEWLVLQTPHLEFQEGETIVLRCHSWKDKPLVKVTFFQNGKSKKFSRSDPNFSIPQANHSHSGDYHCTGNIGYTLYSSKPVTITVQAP

T2: FcγRIIb extracellular domain with C-terminal His tag (human, UniProt P31994 43-217)
T2 construct: extracellular domain; soluble receptor expressed in FreeStyle293 cells, used as analyte in Biacore; also called FcgRIIb; 2b; not shown: His tag attached to the C terminus
T2 sequence (looked up): T1 sequence (looked up)

B1: GpH7-A5/GpH7-B3 variant S298_15Y/GpL16-k0 (antibody, human IgG1, kappa)
heavy 1: not shown
heavy 2: not shown
light: DIVMTQSPLSLPVTPGEPASISCQASESLVHSNRNTYLHWYLQKPGQSPQLLIYKVSNRFSGVPDRFSGSGSGTDFTLKISRVEAEDVGVYYCSQNTHVPPTFGQGTKVEIERTVAAPSVFIFPPSDEQLKSGTASVVCLLNNFYPREAKVQWKVDNALQSGNSQESVTEQDSKDSTYSLSSTLTLSKADYEKHKVYACEVTHQGLSSPVTKSFNRGEC
notes: He Ab: mutation only in the GpH7-B3 H chain; EU numbering; also called He Ab
B2: GpH7-A5/GpH7-B3 variant D270_01G/GpL16-k0 (antibody, human IgG1, kappa)
heavy 1: not shown
heavy 2: not shown
light: B1 light
notes: heterodimerized anti-glypican-3 IgG1; alteration in the GpH7-B3 chain only; also called He Ab
B3: GpH7-A5/GpH7-B3 variant A327_03V/GpL16-k0 (antibody, human IgG1, kappa)
heavy 1: not shown
heavy 2: not shown
light: B1 light
notes: as for B2
B4: GpH7-A5/GpH7-B3 variant A330_07I/GpL16-k0 (antibody, human IgG1, kappa)
heavy 1: not shown
heavy 2: not shown
light: B1 light
notes: as for B2
B5: GpH7-A5/GpH7-B3 variant A327_06M/GpL16-k0 (antibody, human IgG1, kappa)
heavy 1: not shown
heavy 2: not shown
light: B1 light
notes: as for B2
B6: GpH7-A5/GpH7-B3 variant A330_14T/GpL16-k0 (antibody, human IgG1, kappa)
heavy 1: not shown
heavy 2: not shown
light: B1 light
notes: as for B2
B7: GpH7-A5/GpH7-B3 variant A327_13S/GpL16-k0 (antibody, human IgG1, kappa)
heavy 1: not shown
heavy 2: not shown
light: B1 light
notes: as for B2
B8: GpH7-A5/GpH7-B3 variant A330_11K/GpL16-k0 (antibody, human IgG1, kappa)
heavy 1: not shown
heavy 2: not shown
light: B1 light
notes: as for B2
B9: GpH7-A5/GpH7-B3 variant D270_05P/GpL16-k0 (antibody, human IgG1, kappa)
heavy 1: not shown
heavy 2: not shown
light: B1 light
notes: as for B2
B10: GpH7-A5/GpH7-B3 variant A330_09D/GpL16-k0 (antibody, human IgG1, kappa)
heavy 1: not shown
heavy 2: not shown
light: B1 light
notes: as for B2
B11: GpH7-A5/GpH7-B3 variant A330_18N/GpL16-k0 (antibody, human IgG1, kappa)
heavy 1: not shown
heavy 2: not shown
light: B1 light
notes: as for B2
B12: GpH7-A5/GpH7-B3 variant A330_10E/GpL16-k0 (antibody, human IgG1, kappa)
heavy 1: not shown
heavy 2: not shown
light: B1 light
notes: as for B2
B13: GpH7-A5/GpH7-B3 variant A330_19Q/GpL16-k0 (antibody, human IgG1, kappa)
heavy 1: not shown
heavy 2: not shown
light: B1 light
notes: as for B2
B14: GpH7-A5/GpH7-B3 variant D270_04F/GpL16-k0 (antibody, human IgG1, kappa)
heavy 1: not shown
heavy 2: not shown
light: B1 light
notes: as for B2
B15: GpH7-A5/GpH7-B3 variant D270_02A/GpL16-k0 (antibody, human IgG1, kappa)
heavy 1: not shown
heavy 2: not shown
light: B1 light
notes: as for B2
B16: GpH7-A5/GpH7-B3 variant A330_06M/GpL16-k0 (antibody, human IgG1, kappa)
heavy 1: not shown
heavy 2: not shown
light: B1 light
notes: as for B2
B17: GpH7-A5/GpH7-B3 variant D270_03V/GpL16-k0 (antibody, human IgG1, kappa)
heavy 1: not shown
heavy 2: not shown
light: B1 light
notes: as for B2
B18: GpH7-A5/GpH7-B3 variant A330_03V/GpL16-k0 (antibody, human IgG1, kappa)
heavy 1: not shown
heavy 2: not shown
light: B1 light
notes: as for B2
B19: GpH7-A5/GpH7-B3 variant A330_20W/GpL16-k0 (antibody, human IgG1, kappa)
heavy 1: not shown
heavy 2: not shown
light: B1 light
notes: as for B2
B20: GpH7-A5/GpH7-B3 variant A330_15Y/GpL16-k0 (antibody, human IgG1, kappa)
heavy 1: not shown
heavy 2: not shown
light: B1 light
notes: as for B2
B21: GpH7-A5/GpH7-B3 variant A330_08L/GpL16-k0 (antibody, human IgG1, kappa)
heavy 1: not shown
heavy 2: not shown
light: B1 light
notes: as for B2
B22: GpH7-A5/GpH7-B3 variant D270_06M/GpL16-k0 (antibody, human IgG1, kappa)
heavy 1: not shown
heavy 2: not shown
light: B1 light
notes: as for B2
B23: GpH7-A5/GpH7-B3 variant A330_04F/GpL16-k0 (antibody, human IgG1, kappa)
heavy 1: not shown
heavy 2: not shown
light: B1 light
notes: as for B2
B24: GpH7-A5/GpH7-B3 variant A330_16H/GpL16-k0 (antibody, human IgG1, kappa)
heavy 1: not shown
heavy 2: not shown
light: B1 light
notes: as for B2

Each binder was assayed against T3, FcγRIa (human, UniProt P12314 16-292) (assay: SPR (Biacore), captured antibody, soluble FcγR; relative to GpH7-A5/GpH7-B3/GpL16-k0).
T3 construct: extracellular domain; also called FcgRI; 1a; not shown: His tag at the C terminus
T3 sequence (P12314 16-292): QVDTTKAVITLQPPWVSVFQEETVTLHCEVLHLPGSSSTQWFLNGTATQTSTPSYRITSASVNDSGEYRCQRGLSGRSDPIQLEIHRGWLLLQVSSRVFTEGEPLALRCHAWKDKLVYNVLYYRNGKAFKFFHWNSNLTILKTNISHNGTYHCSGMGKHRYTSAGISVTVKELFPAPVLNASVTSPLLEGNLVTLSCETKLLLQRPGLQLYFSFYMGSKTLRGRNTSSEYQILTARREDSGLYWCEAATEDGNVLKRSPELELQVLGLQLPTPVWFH

Row | He/Con_1a | Binder
1 | 107 relative, HeCon Ab = 100 | B1

These binders were tested against T1, FcγRIIb in the same assay as above.

Row | He/Con_2b | Binder
2 | 61.4 relative, HeCon Ab = 100 | B1

Each binder was assayed against T2, FcγRIIb extracellular domain with … (assay: SPR (Biacore), antibody captured on antigen peptide chip, FcγR as analyte; relative binding).

Row | He/Con_2b | Binder
3 | 30.5 % of control GpH7-A5/GpH7-B3/GpL16-k0 (=100) | B2
4 | 94.7 % of control GpH7-A5/GpH7-B3/GpL16-k0 (=100) | B3
5 | 67.1 % of control GpH7-A5/GpH7-B3/GpL16-k0 (=100) | B4
6 | 59.5 % of control GpH7-A5/GpH7-B3/GpL16-k0 (=100) | B5
7 | 77.9 % of control GpH7-A5/GpH7-B3/GpL16-k0 (=100) | B6
8 | 79.5 % of control GpH7-A5/GpH7-B3/GpL16-k0 (=100) | B7
9 | 95 % of control GpH7-A5/GpH7-B3/GpL16-k0 (=100) | B8
10 | 13.9 % of control GpH7-A5/GpH7-B3/GpL16-k0 (=100) | B9
11 | 55.6 % of control GpH7-A5/GpH7-B3/GpL16-k0 (=100) | B10
12 | 63.7 % of control GpH7-A5/GpH7-B3/GpL16-k0 (=100) | B11
13 | 70.1 % of control GpH7-A5/GpH7-B3/GpL16-k0 (=100) | B12
14 | 90.8 % of control GpH7-A5/GpH7-B3/GpL16-k0 (=100) | B13
15 | 53.1 % of control GpH7-A5/GpH7-B3/GpL16-k0 (=100) | B14
16 | 48.3 % of control GpH7-A5/GpH7-B3/GpL16-k0 (=100) | B15
17 | 80.5 % of control GpH7-A5/GpH7-B3/GpL16-k0 (=100) | B16
18 | 39.5 % of control GpH7-A5/GpH7-B3/GpL16-k0 (=100) | B17
19 | 52.4 % of control GpH7-A5/GpH7-B3/GpL16-k0 (=100) | B18
20 | 76.1 % of control GpH7-A5/GpH7-B3/GpL16-k0 (=100) | B19
21 | 95 % of control GpH7-A5/GpH7-B3/GpL16-k0 (=100) | B20
22 | 70.5 % of control GpH7-A5/GpH7-B3/GpL16-k0 (=100) | B21
23 | 48.2 % of control GpH7-A5/GpH7-B3/GpL16-k0 (=100) | B22
24 | 92.8 % of control GpH7-A5/GpH7-B3/GpL16-k0 (=100) | B23
25 | 87.6 % of control GpH7-A5/GpH7-B3/GpL16-k0 (=100) | B24

The binders below were run against T4, FcγRIa extracellular domain with C-terminal His tag (human, UniProt P12314 16-292) in the same assay as above.
T4 construct: extracellular domain; soluble receptor expressed in FreeStyle293 cells, used as analyte in Biacore; also called FcgRI; 1a; not shown: His tag attached to the C terminus
T4 sequence (P12314 16-292): as above

Row | He/Con_1a | Binder
26 | 76.3 % of control GpH7-A5/GpH7-B3/GpL16-k0 (=100) | B2
27 | 103 % of control GpH7-A5/GpH7-B3/GpL16-k0 (=100) | B3
28 | 105 % of control GpH7-A5/GpH7-B3/GpL16-k0 (=100) | B4
29 | 103 % of control GpH7-A5/GpH7-B3/GpL16-k0 (=100) | B5
30 | 105 % of control GpH7-A5/GpH7-B3/GpL16-k0 (=100) | B6
31 | 102 % of control GpH7-A5/GpH7-B3/GpL16-k0 (=100) | B7
32 | 103 % of control GpH7-A5/GpH7-B3/GpL16-k0 (=100) | B8
33 | 67.1 % of control GpH7-A5/GpH7-B3/GpL16-k0 (=100) | B9
34 | 109 % of control GpH7-A5/GpH7-B3/GpL16-k0 (=100) | B10
35 | 106 % of control GpH7-A5/GpH7-B3/GpL16-k0 (=100) | B11
36 | 107 % of control GpH7-A5/GpH7-B3/GpL16-k0 (=100) | B12
37 | 105 % of control GpH7-A5/GpH7-B3/GpL16-k0 (=100) | B13
38 | 78.1 % of control GpH7-A5/GpH7-B3/GpL16-k0 (=100) | B14
39 | 71.5 % of control GpH7-A5/GpH7-B3/GpL16-k0 (=100) | B15
40 | 105 % of control GpH7-A5/GpH7-B3/GpL16-k0 (=100) | B16
41 | 77.9 % of control GpH7-A5/GpH7-B3/GpL16-k0 (=100) | B17
42 | 106 % of control GpH7-A5/GpH7-B3/GpL16-k0 (=100) | B18
43 | 108 % of control GpH7-A5/GpH7-B3/GpL16-k0 (=100) | B19
44 | 105 % of control GpH7-A5/GpH7-B3/GpL16-k0 (=100) | B20
45 | 107 % of control GpH7-A5/GpH7-B3/GpL16-k0 (=100) | B21
46 | 78.8 % of control GpH7-A5/GpH7-B3/GpL16-k0 (=100) | B22
47 | 106 % of control GpH7-A5/GpH7-B3/GpL16-k0 (=100) | B23
48 | 106 % of control GpH7-A5/GpH7-B3/GpL16-k0 (=100) | B24
